Test results taken from publication PMC9352680, “A comprehensive thermodynamic model for RNA binding by the Saccharomyces cerevisiae Pumilio protein PUF4”.
Residue numbers refer to the chain shown, from its start. Numbers in names are those of the source.

T1: PUF4 RNA-binding domain (Saccharomyces cerevisiae, UniProt P25339 537-888)
T1 sequence: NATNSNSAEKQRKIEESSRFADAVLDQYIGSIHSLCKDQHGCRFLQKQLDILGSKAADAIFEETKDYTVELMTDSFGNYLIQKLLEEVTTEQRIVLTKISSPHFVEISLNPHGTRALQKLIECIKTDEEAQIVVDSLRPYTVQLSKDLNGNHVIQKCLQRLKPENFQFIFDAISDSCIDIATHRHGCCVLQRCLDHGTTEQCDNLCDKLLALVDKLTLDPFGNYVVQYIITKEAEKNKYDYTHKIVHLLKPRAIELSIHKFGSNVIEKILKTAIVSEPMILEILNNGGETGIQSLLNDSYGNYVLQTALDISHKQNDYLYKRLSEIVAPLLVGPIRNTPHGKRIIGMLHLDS

B1: Ic_S2_P3E.1_K3.1_C3.1_H3.1_A3.1_[T5G]_[A6C]_F3.1_[T7G]_[A8T]_T3.1 (ssRNA)
RNA: UUUGAUUAAUAUGAUAUCGUUCUUUCUUGUAGCGUUUCUUUCUCGAUAUCAUAUUAAUCUUU
B2: Ic_S2_P3E.1_K3.1_C3.1_H3.1_A3.1_[T5G]_[A6C]_F3.1_[T7C]_[A8G]_T3.1 (ssRNA)
RNA: B1 RNA with G34C, U35G
B3: Ic_S2_P3E.1_K3.1_C3.1_H3.1_A3.1_[T5G]_[A6C]_F3.1_[T7C]_[A8C]_T3.1 (ssRNA)
RNA: B1 RNA with G34C, U35C

Molecular target: T1, PUF4 RNA-binding domain
Test: Mg; RNA-MaP; 20 mM Na-HEPES pH 7.4, 30 mM KOAc, 0.75 mM MgCl2, 0.1% Tween-20, 5% glycerol, 0.1 mg/mL BSA, 2 mM DTT; 25 C; 0.0125-409.6 nM protein
Conditions: tags: N-His6-TEV cleaved; C-SNAP kept, Cy3B-labelled; label: tethered on chip by stalled RNA polymerase

| Binder | Kd |
| --- | --- |
| UCUCUUUGUAAUGGUCUCUCUU (ssRNA) [Ic_S1_P5E.1_K5.1_C5.1_H5.1_A5.1_[T5A]_[A7G]_F5.1_[T8G]_[A10C]_T5.1] | 1800 nM |
| UCUCUUUGUAGCCUUUUCUCUU (ssRNA) [Ic_S1_P5E.1_K5.1_C5.1_H5.1_A5.1_[T5G]_[T6C]_[A7C]_F5.1_[A10T]_T5.1] | 470 nM |
| UCUCUUUGUAUAUAUUUCUCUU (ssRNA) [Ic_S1_P5E.1_K5.1_C5.1_H5.1_A5.1_[T6A]_[A7T]_F5.1_[T8A]_[A10T]_T5.1] | 7.35 nM |
| UCUCUUCGUAUUUAUCUCUU (ssRNA) [Ib_S1_P3E.1_K3.1_C3.1_H3.1_[T1C]_A3.1_[A6T]_F3.1_T3.1] | > 2300 nM |
| UCUCUUUGUAUGGCUCUCUCUU (ssRNA) [Ic_S1_P5E.1_K5.1_C5.1_H5.1_A5.1_[T6G]_[A7G]_F5.1_[T8C]_[A10C]_T5.1] | > 2300 nM |
| UCUCUUUGUAACUCAGUCUCUU (ssRNA) [Ic_S1_P5E.1_K5.1_C5.1_H5.1_A5.1_[T5A]_[T6C]_[A7T]_F5.1_[T8C]_[T9A]_[A10G]_T5.1] | 175 nM |
| UCUCUUUGUAUAUGAAUCUCUU (ssRNA) [Ic_S1_P5E.1_K5.1_C5.1_H5.1_A5.1_[T6A]_[A7T]_F5.1_[T8G]_[T9A]_T5.1] | 19.4 nM |
| UCUCUUUGUACACACCUCUCUU (ssRNA) [Ic_S1_P5E.1_K5.1_C5.1_H5.1_A5.1_[T5C]_[T6A]_[A7C]_F5.1_[T8A]_[T9C]_[A10C]_T5.1] | 76.8 nM |
| UCUCUUUGUAACGAUGUCUCUU (ssRNA) [Ic_S1_P5E.1_K5.1_C5.1_H5.1_A5.1_[T5A]_[T6C]_[A7G]_F5.1_[T8A]_[A10G]_T5.1] | 1000 nM |
| UCUCUUUGUAUUCCUCUCUCUU (ssRNA) [Ic_S1_P5E.1_K5.1_C5.1_H5.1_A5.1_[A7C]_F5.1_[T8C]_[A10C]_T5.1] | 132 nM |
| UCUCUUUGUAUAUCCUUCUCUU (ssRNA) [Ic_S1_P5E.1_K5.1_C5.1_H5.1_A5.1_[T6A]_[A7T]_F5.1_[T8C]_[T9C]_[A10T]_T5.1] | 24 nM |
| UCUCUUUGUACCCCGGUCUCUU (ssRNA) [Ic_S1_P5E.1_K5.1_C5.1_H5.1_A5.1_[T5C]_[T6C]_[A7C]_F5.1_[T8C]_[T9G]_[A10G]_T5.1] | > 2300 nM |
| UCUCUUUGUAACCUUUUCUCUU (ssRNA) [Ic_S1_P5E.1_K5.1_C5.1_H5.1_A5.1_[T5A]_[T6C]_[A7C]_F5.1_[A10T]_T5.1] | 49.8 nM |
| UCUCUUUGUACAUUCGUCUCUU (ssRNA) [Ic_S1_P5E.1_K5.1_C5.1_H5.1_A5.1_[T5C]_[T6A]_[A7T]_F5.1_[T9C]_[A10G]_T5.1] | 9.95 nM |
| UCUCUUAGUAUGUAUCUCUU (ssRNA) [Ib_S1_P3E.1_K3.1_C3.1_H3.1_[T1A]_A3.1_[A6G]_F3.1_T3.1] | 381 nM |
| UCUCUUUGUACUCUAUUCUCUU (ssRNA) [Ic_S1_P5E.1_K5.1_C5.1_H5.1_A5.1_[T5C]_[A7C]_F5.1_[T9A]_[A10T]_T5.1] | 3.85 nM |

| Binder | Kd |
| --- | --- |
| UCUCUUUGUAUGUCAUUCUCUU (ssRNA) [Ic_S1_P5E.1_K5.1_C5.1_H5.1_A5.1_[T6G]_[A7T]_F5.1_[T8C]_[T9A]_[A10T]_T5.1] | 297 nM |
| UCUCUUUGUAACUAUCUCUCUU (ssRNA) [Ic_S1_P5E.1_K5.1_C5.1_H5.1_A5.1_[T5A]_[T6C]_[A7T]_F5.1_[T8A]_[A10C]_T5.1] | 113 nM |
| UCUCUUUGUACUCUCUUCUCUU (ssRNA) [Ic_S1_P5E.1_K5.1_C5.1_H5.1_A5.1_[T5C]_[A7C]_F5.1_[T9C]_[A10T]_T5.1] | 295 nM |
| UCUCUUUGUAGUAAUUUCUCUU (ssRNA) [Ic_S1_P5E.1_K5.1_C5.1_H5.1_A5.1_[T5G]_F5.1_[T8A]_[A10T]_T5.1] | 1270 nM |
| UCUCUUUGUAGCCCAUUCUCUU (ssRNA) [Ic_S1_P5E.1_K5.1_C5.1_H5.1_A5.1_[T5G]_[T6C]_[A7C]_F5.1_[T8C]_[T9A]_[A10T]_T5.1] | 1530 nM |
| UCUCUUUGUAUGUAAAUCUCUU (ssRNA) [Ic_S1_P5E.1_K5.1_C5.1_H5.1_A5.1_[T6G]_[A7T]_F5.1_[T8A]_[T9A]_T5.1] | 92.9 nM |
| UCUCUUUGUAACGUCUUCUCUU (ssRNA) [Ic_S1_P5E.1_K5.1_C5.1_H5.1_A5.1_[T5A]_[T6C]_[A7G]_F5.1_[T9C]_[A10T]_T5.1] | 2100 nM |
| UCUCUUUGUAUCAGCCUCUCUU (ssRNA) [Ic_S1_P5E.1_K5.1_C5.1_H5.1_A5.1_[T6C]_F5.1_[T8G]_[T9C]_[A10C]_T5.1] | 918 nM |
| UCUCUUUGUACAAUGGUCUCUU (ssRNA) [Ic_S1_P5E.1_K5.1_C5.1_H5.1_A5.1_[T5C]_[T6A]_F5.1_[T9G]_[A10G]_T5.1] | 12.5 nM |
| UCUCUUAGUAUCUAUCUCUU (ssRNA) [Ib_S1_P3E.1_K3.1_C3.1_H3.1_[T1A]_A3.1_[A6C]_F3.1_T3.1] | > 2300 nM |
| UCUCUUUGUACGCCCAUCUCUU (ssRNA) [Ic_S1_P5E.1_K5.1_C5.1_H5.1_A5.1_[T5C]_[T6G]_[A7C]_F5.1_[T8C]_[T9C]_T5.1] | 564 nM |
| UCUCUUUGUAAAUUAAUCUCUU (ssRNA) [Ic_S1_P5E.1_K5.1_C5.1_H5.1_A5.1_[T5A]_[T6A]_[A7T]_F5.1_[T9A]_T5.1] | 1.57 nM |
| UCUCUUUGUACUGCAUUCUCUU (ssRNA) [Ic_S1_P5E.1_K5.1_C5.1_H5.1_A5.1_[T5C]_[A7G]_F5.1_[T8C]_[T9A]_[A10T]_T5.1] | 534 nM |
| B1 | 163 nM |
| B2 | 996 nM |
| B3 | 526 nM |
